We go through two molecules from article PMC5789848, “HTLV-1 Tax plugs and freezes UPF1 helicase leading to nonsense-mediated mRNA decay inhibition”.

Data set [1] has as its target T1, UPF1-HD (Homo sapiens, UniProt Q92900-2 295-914).
T1 sequence: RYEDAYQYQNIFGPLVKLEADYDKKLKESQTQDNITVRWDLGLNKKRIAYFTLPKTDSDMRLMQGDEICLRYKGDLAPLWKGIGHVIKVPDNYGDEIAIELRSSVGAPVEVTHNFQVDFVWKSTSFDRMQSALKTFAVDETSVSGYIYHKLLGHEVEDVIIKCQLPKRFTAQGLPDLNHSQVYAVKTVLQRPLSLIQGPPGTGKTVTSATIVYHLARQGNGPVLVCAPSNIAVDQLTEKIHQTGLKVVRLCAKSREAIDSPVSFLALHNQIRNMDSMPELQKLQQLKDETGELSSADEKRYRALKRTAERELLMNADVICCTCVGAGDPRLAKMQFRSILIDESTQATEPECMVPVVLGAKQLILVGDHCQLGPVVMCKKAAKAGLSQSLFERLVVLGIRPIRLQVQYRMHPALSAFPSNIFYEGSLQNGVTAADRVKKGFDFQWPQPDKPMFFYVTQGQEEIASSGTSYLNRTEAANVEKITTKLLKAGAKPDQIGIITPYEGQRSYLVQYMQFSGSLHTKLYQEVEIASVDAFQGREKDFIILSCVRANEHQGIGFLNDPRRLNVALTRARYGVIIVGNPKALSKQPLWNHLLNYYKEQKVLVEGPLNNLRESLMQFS
As to the kind of experiment: pull-down; 200 mM NaCl; BLI: 20 mM HEPES pH 7.5, 150 mM K acetate, 2 mM Mg acetate, 1 mM DTT, 6.3% glycerol, 0.1% NP-40; EMSA: 20 mM MES pH 6.0, 150 mM K acetate, 2 mM DTT, 0.2 ug/ul BSA, 6% glycerol, 30 C; pull-down: BLI-like buffer, 30 C then 4 C, 200 mM NaCl wash. To be noted: protein: recombinant; tags: C-terminal His6 (CBP N-terminal and/or His6 per Methods); label: 3' biotin (BtnTg); single strand.

The target in data set [2] is T1, UPF1-HD. As to the kind of experiment: EMSA; UPF1-HD 0-10 nM, RNA 1 nM; BLI: 20 mM HEPES pH 7.5, 150 mM K acetate, 2 mM Mg acetate, 1 mM DTT, 6.3% glycerol, 0.1% NP-40; EMSA: 20 mM MES pH 6.0, 150 mM K acetate, 2 mM DTT, 0.2 ug/ul BSA, 6% glycerol, 30 C; pull-down: BLI-like buffer, 30 C then 4 C, 200 mM NaCl wash. To be noted: protein: recombinant; tags: C-terminal His6 (CBP N-terminal and/or His6 per Methods); label: 32P; single strand.

B1: 30-mer ssRNA 3'-biotin (pull-down) (ssRNA)
RNA: CGUCCAUCUGGUCAUCUAGUGAUAUCAUCG
As to B1, the binding result with UPF1-HD [1] is reported as “binds”.

B2: 30-mer ssRNA (EMSA) (ssRNA)
RNA: CGUCCAUCUGGUCAUCUAGUGAUAUCAUCG
For the molecule B2, in the data set with UPF1-HD [2], the binding result is “binds”.
